# From IntAct's records for PubMed 11777938
# B1: Anaphase-promoting complex subunit 8 (Schizosaccharomyces pombe (strain ATCC 38366 / 972)), O94556 (parent)
# chain: MTVSLNTMMGVDGLEDQEQLREIRNCLLKCISECSERGLVYAVRWAAEMLNGMNPIEMEHIPFSSTPTGEFDLDPDMANEKLLEVEEKNIYLLAKSYFDCKEFERAAYTLQNCKSSKSIFLRLYSKYLAGEKKSEEENETLLNTNLTLSSTNREFYYISEVLESLHYQGNKDPYLLYLSGVVYRKRKQDSKAIDFLKSCVLKAPFFWSAWLELSLSIDSLETLTTVVSQLPSTHIMTKIFYVYASHELHQVNSSAYEKLAEAEIIFPNSRYLKTQRALLTYDSRDFDEAESLFENILTNDPYRLDDMDTYSNVLFVLENKSKLGFLAQVASSIDKFRPETCSIIGNYYSLLSEHEKAVTYFKRALQLNRNYLSAWTLMGHEYVELKNTHAAIESYRLAVDVNRKDYRAWYGLGQTYEVLDMHFYALYYFQRATALRPYDQRMWQALGNCYEKIDRPQEAIKSYKRALLGSQTNSSILVRLGNLYEELQDLNSAASMYKQCIKTEETEISPETIKARIWLARWELGKKNYREAELYLSEVLNGDLELEEAKALLRELRSRMEHSYD
# partner: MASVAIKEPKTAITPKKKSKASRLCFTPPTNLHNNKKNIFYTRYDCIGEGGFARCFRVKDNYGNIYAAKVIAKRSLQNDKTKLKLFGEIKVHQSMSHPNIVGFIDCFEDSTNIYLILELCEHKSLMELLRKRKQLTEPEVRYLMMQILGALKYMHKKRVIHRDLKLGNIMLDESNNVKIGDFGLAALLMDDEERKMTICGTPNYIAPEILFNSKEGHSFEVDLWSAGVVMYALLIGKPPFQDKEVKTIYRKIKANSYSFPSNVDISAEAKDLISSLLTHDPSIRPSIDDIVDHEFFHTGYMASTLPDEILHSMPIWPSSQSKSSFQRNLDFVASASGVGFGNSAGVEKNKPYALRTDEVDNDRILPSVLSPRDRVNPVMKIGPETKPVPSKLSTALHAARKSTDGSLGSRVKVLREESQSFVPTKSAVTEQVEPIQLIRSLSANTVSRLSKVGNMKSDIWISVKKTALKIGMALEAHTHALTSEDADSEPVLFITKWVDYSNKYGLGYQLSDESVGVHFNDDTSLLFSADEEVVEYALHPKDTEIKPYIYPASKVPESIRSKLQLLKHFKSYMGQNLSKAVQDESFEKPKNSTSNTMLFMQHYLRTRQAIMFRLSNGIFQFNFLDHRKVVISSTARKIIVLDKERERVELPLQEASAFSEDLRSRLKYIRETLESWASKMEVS
# Variants of: B1
# Conditions: with plo1_schpo plo1, P50528
row,Variant,effect of a mutation on the interaction
1,MTVSLNTMMGVDGLEDQEQLREIRNCLLKCISECSERGLVYAVRWAAEMLNGMNPIEMEHIPFSSTPTGEFDLDPDMANEKLLEVEEKNIYLLAKSYFDCKEFERAAYTLQNCKSSKSIFLRLYSKYLAGEKKSEEENETLLNTNLTLSSTNREFYYISEVLESLHYQGNKDPYLLYLSGVVYRKRKQDSKAIDFLKSCVLKAPFFWSAWLELSLSIDSLETLTTVVSQLPSTHIMTKIFYVYASHELHQVNSSAYEKLAEAEIIFPNSRYLKTQRALLTYDSRDFDEAESLFENILTNDPYRLDDMDTYSNVLFVLENKSKLGFLAQVASSIDKFRPETCSIIGNYYNLLSEHEKAVTYFKRALQLNRNYLSAWTLMGHEYVELKNTHAAIESYRLAVDVNRKDYRAWYGLGQTYEVLDMHFYALYYFQRATALRPYDQRMWQALGNCYEKIDRPQEAIKSYKRALLGSQTNSSILVRLGNLYEELQDLNSAASMYKQCIKTEETEISPETIKARIWLARWELGKKNYREAELYLSEVLNGDLELEEAKALLRELRSRMEHSYD [S349N],decreasing interaction
